{"source": "patent US20060067910A1", "about": "“High-molecular weight derivatives of camptothecins” (priority 2002, published 2006)", "key": {"[1]": {"experiment": "Variation in body weight as an indication of toxicity, Colon 26 tumor-bearing mice", "type": "in vivo, mouse", "description": "Mouse colon cancer Colon 26 tumor under successive cultivation under mouse skin was cut into blocks of approximately 2 mm square, and transplanted to under mouse skin using a trochar. […] As an indication of toxicity, variation in body weight was also measured (Table 2)."}, "[2]": {"tested_on": "Mouse colon cancer Colon 26 tumor", "experiment": "Antitumor action, relative tumor volume after single intravenous administration", "type": "in vivo", "settings": "with smaller administration amount; single i.v. administration", "description": "As an indication of toxicity, variation in body weight was also measured (Table 2)."}}, "data": [{"substance": "condensate of a block copolymer of mono-methoxypolyethylene glycol having a molecular weight of approximately 12000 and polyglutamic acid having a polymerization number of approximately 7, with 7-ethyl-10-hydroxycamptothecin [Compound 2]", "values": [{"measurement": "variation in body weight", "setting": "[1]; dose 90.0 mg/kg i.v. once, day 0 after administration", "result": 1.0}, {"measurement": "variation in body weight", "setting": "[1]; dose 90.0 mg/kg i.v. once, day 2 after administration", "result": 0.96}, {"measurement": "variation in body weight", "setting": "[1]; dose 90.0 mg/kg i.v. once, day 5 after administration", "result": 1.00}, {"measurement": "variation in body weight", "setting": "[1]; dose 90.0 mg/kg i.v. once, day 12 after administration", "result": 0.90}, {"measurement": "variation in body weight", "setting": "[1]; dose 90.0 mg/kg i.v. once, day 14 after administration", "result": 0.83}, {"measurement": "variation in body weight", "setting": "[1]; dose 180.0 mg/kg i.v. once, day 0 after administration", "result": 1.0}, {"measurement": "variation in body weight", "setting": "[1]; dose 180.0 mg/kg i.v. once, day 2 after administration", "result": 0.91}, {"measurement": "variation in body weight", "setting": "[1]; dose 180.0 mg/kg i.v. once, day 5 after administration", "result": 0.99}, {"measurement": "variation in body weight", "setting": "[1]; dose 180.0 mg/kg i.v. once, day 7 after administration", "result": 0.99}, {"measurement": "variation in body weight", "setting": "[1]; dose 180.0 mg/kg i.v. once, day 9 after administration", "result": 1.04}, {"measurement": "variation in body weight", "setting": "[1]; dose 180.0 mg/kg i.v. once, day 12 after administration", "result": 0.94}, {"measurement": "variation in body weight", "setting": "[1]; dose 180.0 mg/kg i.v. once, day 14 after administration", "result": 0.94}]}, {"substance": "condensate of a block copolymer of methoxypolyethylene glycol having a molecular weight of approximately 12000 and polyglutamic acid having a polymerization number of approximately 28, with 7-ethyl-10-hydroxycamptothecin [Compound 1]", "values": [{"measurement": "variation in body weight", "setting": "[1]; dose 22.5 mg/kg i.v. once, day 0 after administration", "result": 1.0}, {"measurement": "variation in body weight", "setting": "[1]; dose 22.5 mg/kg i.v. once, day 2 after administration", "result": 0.98}, {"measurement": "variation in body weight", "setting": "[1]; dose 22.5 mg/kg i.v. once, day 5 after administration", "result": 1.02}, {"measurement": "variation in body weight", "setting": "[1]; dose 22.5 mg/kg i.v. once, day 9 after administration", "result": 1.06}, {"measurement": "variation in body weight", "setting": "[1]; dose 22.5 mg/kg i.v. once, day 12 after administration", "result": 1.03}, {"measurement": "variation in body weight", "setting": "[1]; dose 22.5 mg/kg i.v. once, day 14 after administration", "result": 0.96}, {"measurement": "variation in body weight", "setting": "[1]; dose 45.0 mg/kg i.v. once, day 0 after administration", "result": 1.0}, {"measurement": "variation in body weight", "setting": "[1]; dose 45.0 mg/kg i.v. once, day 2 after administration", "result": 0.94}, {"measurement": "variation in body weight", "setting": "[1]; dose 45.0 mg/kg i.v. once, day 5 after administration", "result": 0.91}, {"measurement": "variation in body weight", "setting": "[1]; dose 45.0 mg/kg i.v. once, day 7 after administration", "result": 0.97}, {"measurement": "variation in body weight", "setting": "[1]; dose 45.0 mg/kg i.v. once, day 12 after administration", "result": 1.03}, {"measurement": "variation in body weight", "setting": "[1]; dose 45.0 mg/kg i.v. once, day 14 after administration", "result": 1.04}, {"measurement": "antitumor effect as compared with compound 2 (smaller drug content)", "setting": "[2]", "result": "higher antitumor effect"}]}]}
